Data from patent publication US20210087291A1.
pKd: −log10 of the molar value.

How the values were obtained:
[1] = target: human TIM-3 on cells (human) (UniProt Q8TDQ0); test: flow cytometry, human CD14+ monocytes donor1
[2] = target: human TIM-3 on cells (human) (UniProt Q8TDQ0); test: flow cytometry, human CD14+ monocytes donor3
[3] = target: cynomolgus TIM-3 on isolated cyno CD14+ monocytes (cynomolgus); test: flow cytometry, cyno CD14+ monocytes cyno2
[4] = target: cynomolgus TIM-3 on isolated cyno CD14+ monocytes (cynomolgus); test: flow cytometry, cyno CD14+ monocytes cyno1
[5] = target: cynomolgus TIM-3 on isolated cyno CD14+ monocytes (cynomolgus); test: flow cytometry, cyno CD14+ monocytes cyno3
[6] = target: human TIM-3 on cells (human) (UniProt Q8TDQ0); test: flow cytometry, human CD14+ monocytes donor2
[7] = target: human TIM-3 on cells (human) (UniProt Q8TDQ0); test: FACS competition on RPMI-8226, competitor TIM3-0026
[8] = target: human TIM-3 on cells (human) (UniProt Q8TDQ0); test: FACS competition on RPMI-8226, competitor TIM3-0038
[9] = target: human TIM-3 on cells (human) (UniProt Q8TDQ0); test: FACS competition on RPMI-8226, competitor TIM3-0018
[10] = target: human TIM-3 on cells (human) (UniProt Q8TDQ0); test: FACS competition on RPMI-8226, competitor TIM3-0016
[11] = target: human TIM-3 on cells (human) (UniProt Q8TDQ0); test: cell-based or functional assay
[12] = target: cynomolgus Tim3 (ELISA) (cynomolgus); test: ELISA, cyno Tim3
[13] = target: Tim3-ECD-His-Biotin (human) (UniProt Q8TDQ0); test: ELISA, human Tim3; EC50 relative to the sample's max value
[14] = target: human TIM-3 on cells (human) (UniProt Q8TDQ0); test: FACS competition on RPMI-8226, competitor TIM3-0022
[15] = target: Tim3-ECD-His-Biotin (human) (UniProt Q8TDQ0); test: ELISA, human Tim3
[16] = target: human TIM-3 on cells (human) (UniProt Q8TDQ0); test: cell ELISA, CHO-Tim3
[17] = target: human TIM-3 on cells (human) (UniProt Q8TDQ0); test: FACS competition on RPMI-8226, competitor TIM3-0028
[18] = target: human TIM-3 on cells (human) (UniProt Q8TDQ0); test: cell ELISA, CHO-Tim3; EC50 relative to the sample's max value
[19] = target: huFc fused dimeric human Tim3-ECD (human) (UniProt Q8TDQ0); test: SPR Biacore, antibody captured by anti-mouse IgG
[20] = target: monomeric human Tim3-ECD (human) (UniProt Q8TDQ0); test: SPR Biacore, antibody captured by anti-mouse IgG
[21] = target: monomeric cyno Tim3-ECD (cynomolgus); test: SPR Biacore, antibody captured by anti-mouse IgG
[22] = target: cynomolgus Tim3 (ELISA) (cynomolgus); test: ELISA, cyno Tim3; EC50 relative to the sample's max value

Chain of cynomolgus Tim3 (ELISA) (cynomolgus) (chain, as listed by the source, form in doubt): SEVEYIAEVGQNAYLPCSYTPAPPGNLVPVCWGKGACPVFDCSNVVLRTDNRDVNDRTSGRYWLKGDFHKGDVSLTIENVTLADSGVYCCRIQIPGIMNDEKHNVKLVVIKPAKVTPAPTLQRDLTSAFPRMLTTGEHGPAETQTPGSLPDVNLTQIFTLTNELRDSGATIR
Chain of monomeric cyno Tim3-ECD (cynomolgus) (chain, as listed by the source, form in doubt): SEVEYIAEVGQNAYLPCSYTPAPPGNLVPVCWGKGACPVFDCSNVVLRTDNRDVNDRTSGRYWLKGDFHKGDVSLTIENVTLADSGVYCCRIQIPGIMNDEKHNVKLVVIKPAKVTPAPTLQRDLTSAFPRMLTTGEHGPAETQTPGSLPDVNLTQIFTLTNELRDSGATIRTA

Substance	specific binding MFI [1] [MFI]	specific binding MFI [2] [MFI]	MFI [3] [MFI]	MFI [4] [MFI]	MFI [5] [MFI]	specific binding MFI [6] [MFI]	Max % inhibition of binding [7] [%]	Max % inhibition of binding [8] [%]	Max % inhibition of binding [9] [%]	Max % inhibition of binding [10] [%]	further results
M-IgG1 (isotype control) (antibody)	144	213	82	72	83	55					
M-IgG2b (isotype control) (antibody)	0	0				13					
Rat-IgG2A (isotype control) (antibody)	71	70	86	84	91	68					
anti-TIM3 reference antibody 344823 (R&D Systems)	1010	814	121	158	143	917	3	99	0	0	
anti-TIM3 reference antibody F38-2E2 (BioLegend)	516	460	136	135	124	493	2	94	-6	-7	IFN-gamma release in MLR at 1 µg/ml, % of IL-2 control [11]: 7%; IFN-gamma release in MLR at 10 µg/ml, % of IL-2 control [11]: 26%; IFN-gamma release in MLR at 40 µg/ml, % of IL-2 control [11]: 36%; inflexion point [12]: 210000 ng/mL; EC50 [13]: 0.0732 µg/mL; Max % inhibition of binding [14]: 77%; inflexion point [15]: 86.3 ng/mL; inflexion point [16]: 224 ng/mL; Max % inhibition of binding [17]: 75%; EC50 [18]: 0.35 µg/mL; pKd [19]: 8.12; pKd [20]: 7.87; pKd [21]: 6.77; EC50 [22]: 0.423 µg/mL
